Measurements: the supplement of paper PMC7877785
± gives the uncertainty stated by the source.

Test: self-splicing fitness, log relative to wild type (ln ratio); higher = more splicing; Tetrahymena group I intron in knt gene, E. coli kanamycin selection, DiMSum; sequences stand for … in CUCUCU…GGAGGGAAAAGUUAUCAGGCAUGCACCUGGUAGCUAGUCUUUAAACCAAUAGAUUGCAUCGGUUUAAAAGGCAAGACCGUCAAAUUGCGGGAAAGGGGUCAACAGCCGUUCAGUACCAAGUCUCAGGGGAAACUUUGAGAUGGCCUUGCAAAGGGUAUGGUAAUAAGCUGACGGACAUGGUCCUAACCACGCAGCCAAGUCCUAAGUCAACAGAUCUUCUGUUGAUAUGGAUGCAGUUCACAGACUAAAUGUCGGUCGGGGAAGAUGUAUUCUUCUCAUAAGAUAUAGUCGGACCUCUCCUUAAUGGGAGCUAGCGGAUGAAGUGAUGCAACACUGGAGCCGCUGGGAACUAAUUUGUAUGCGAAAGUAUAUUGAUUAGUUUUGGAGUACUCGUGGUCG
Summary of the method: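 A randomised library covering all eight P1ex-region intron nucleotides was built with the intron in the knt kanamycin-resistance gene on pET-22b(+) and held in E. coli BL21(DE3). Cells were grown overnight at 37°C or 30°C on LB agar, with or without 25 μg/mL kanamycin, plus 100 μg/mL carbenicillin, 50 μM IPTG and 0.2% rhamnose, and pooled colonies were amplicon-sequenced on an Illumina HiSeq 2500. DiMSum fitness is the error-weighted combination of wild-type-normalised replicate fold changes, kanamycin versus none.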

Sequence | self-splicing fitness (ln) (30 °C) | self-splicing fitness (ln) (37 °C)
GCCCAGCAAUAUUACGGAAA | -0.768 ± 0.075 | -0.234 ± 0.084
CGCAAGCAAUAUUACGGAGU | -3.16 ± 0.2 | -1.68 ± 0.18
AUACAGCAAUAUUACGAUCG | -0.733 ± 0.071 | -0.839 ± 0.097
CAUGAGCAAUAUUACGGUAG | -2.01 ± 0.1 | -0.949 ± 0.11
GGUAAGCAAUAUUACGCAGU | -1.51 ± 0.17 | -1.55 ± 0.24
GCCUAGCAAUAUUACGGUGC | -2.59 ± 0.15 | -1.48 ± 0.14
CUGUAGCAAUAUUACGCUAG | -3.71 ± 0.21 | -2.36 ± 0.23
CUAGAGCAAUAUUACGUGCU | -3.54 ± 0.28 | -0.493 ± 0.15
AACGAGCAAUAUUACGUCAA | -3.08 ± 0.23 | -3.35 ± 0.3
UGUGAGCAAUAUUACGAGCG | -1.29 ± 0.12 | -0.066 ± 0.12
AAUGAGCAAUAUUACGCUCU | -3.18 ± 0.19 | -3.53 ± 0.23
GCUUAGCAAUAUUACGAAAA | -1.6 ± 0.29 | -1.12 ± 0.28
CAAAAGCAAUAUUACGAACU | -2.51 ± 0.19 | -1.3 ± 0.21
UUGGAGCAAUAUUACGCGGA | – | -1.08 ± 0.36
AAUAAGCAAUAUUACGGUCA | -0.268 ± 0.084 | 0.155 ± 0.12
CAGAAGCAAUAUUACGUCCA | -1.68 ± 0.14 | -1.44 ± 0.21
UAAAAGCAAUAUUACGGACU | -1.21 ± 0.072 | -0.711 ± 0.094
GUAAAGCAAUAUUACGAAUA | -1.68 ± 0.093 | -0.495 ± 0.15
GGACAGCAAUAUUACGCGCG | 0.181 ± 0.094 | -0.742 ± 0.11
AGAAAGCAAUAUUACGUAUG | -2.58 ± 0.12 | -3.05 ± 0.19
GCGAAGCAAUAUUACGUCUC | -2.04 ± 0.12 | -1.41 ± 0.14
UGCUAGCAAUAUUACGCUAA | -1.85 ± 0.13 | -1.55 ± 0.16
GAUGAGCAAUAUUACGGCCA | -2.11 ± 0.44 | -0.871 ± 0.24
UAGAAGCAAUAUUACGGCGC | -1.94 ± 0.19 | -0.275 ± 0.3
CUUAAGCAAUAUUACGGAGG | -2.43 ± 0.21 | -3.19 ± 0.37

Sequence | self-splicing fitness (ln) (30 °C) | self-splicing fitness (ln) (37 °C)
CGUAAGCAAUAUUACGUCCU | -1.88 ± 0.15 | -0.604 ± 0.17
CCUAAGCAAUAUUACGAUAG | -1.12 ± 0.065 | -0.285 ± 0.074
CGAUAGCAAUAUUACGCCGA | -1.92 ± 0.21 | -2.05 ± 0.28
CUUCAGCAAUAUUACGUUGC | -4.23 ± 0.3 | -3.04 ± 0.25
GCUUAGCAAUAUUACGAAGU | -3.26 ± 0.21 | -2.27 ± 0.21
AUAAAGCAAUAUUACGCCAG | -0.993 ± 0.12 | -0.785 ± 0.16
CGGCAGCAAUAUUACGGCCC | -1.31 ± 0.27 | 0.163 ± 0.21
UCCAAGCAAUAUUACGCUUC | -3.36 ± 0.15 | -4.24 ± 0.2
CAGGAGCAAUAUUACGCAGA | -2.76 ± 0.33 | -2.29 ± 0.2
AUCGAGCAAUAUUACGCAUC | -2.77 ± 0.48 | –
AUUUAGCAAUAUUACGGUUA | -0.84 ± 0.16 | -0.183 ± 0.13
AGUCAGCAAUAUUACGGGUC | -1.27 ± 0.11 | -1.43 ± 0.15
GGCGAGCAAUAUUACGGACU | -0.419 ± 0.077 | -0.219 ± 0.13
AGAAAGCAAUAUUACGCCCC | -0.22 ± 0.36 | –
GGGAAGCAAUAUUACGAUUA | -1.56 ± 0.21 | -0.805 ± 0.18
GUAUAGCAAUAUUACGCGCU | -2.22 ± 0.16 | -0.818 ± 0.16
UGUCAGCAAUAUUACGUUAA | -0.609 ± 0.1 | -0.411 ± 0.11
UGCAAGCAAUAUUACGCUGA | -2.78 ± 0.12 | -0.102 ± 0.09
CUCAAGCAAUAUUACGGCAC | -2.74 ± 0.2 | -1.97 ± 0.28
GGCAAGCAAUAUUACGGCAU | -0.207 ± 0.043 | 0.531 ± 0.06
CCCCAGCAAUAUUACGACCC | -0.862 ± 0.32 | –
CCUCAGCAAUAUUACGAUCA | -3.65 ± 0.22 | -2.96 ± 0.26
GUAGAGCAAUAUUACGCGGG | -2.65 ± 0.15 | -1.43 ± 0.17
GUGAAGCAAUAUUACGAGCU | -1.12 ± 0.14 | -1.19 ± 0.21
GAAGAGCAAUAUUACGCUUG | -2.25 ± 0.13 | -1.3 ± 0.14

Sequence | self-splicing fitness (ln) (30 °C) | self-splicing fitness (ln) (37 °C)
CCCGAGCAAUAUUACGCGGA | -3.21 ± 0.28 | -2.23 ± 0.2
GAUAAGCAAUAUUACGACCU | -0.864 ± 0.086 | 0.36 ± 0.1
AGAUAGCAAUAUUACGUAAU | -1.52 ± 0.11 | -0.657 ± 0.12
CGAAAGCAAUAUUACGAAUU | -4.27 ± 0.29 | -1.55 ± 0.14
UACAAGCAAUAUUACGCCUA | 0.14 ± 0.067 | -0.0341 ± 0.071
AAUUAGCAAUAUUACGAGUA | -1.86 ± 0.24 | -1.16 ± 0.18
AUGUAGCAAUAUUACGCGUC | -2.6 ± 0.22 | -2.32 ± 0.3
UGCUAGCAAUAUUACGGGCU | -2.57 ± 0.13 | -1.89 ± 0.14
GUGCAGCAAUAUUACGCGUG | -1.52 ± 0.11 | -1.66 ± 0.16
CCGCAGCAAUAUUACGGGCG | -2.13 ± 0.11 | -1.95 ± 0.12
UCCAAGCAAUAUUACGUCUC | -3.53 ± 0.32 | -2.02 ± 0.46
UUAGAGCAAUAUUACGGGUC | -3.07 ± 0.18 | -1.69 ± 0.22
CCGUAGCAAUAUUACGUAGG | -3.19 ± 0.17 | -1.87 ± 0.19
GUACAGCAAUAUUACGUGUU | -2.74 ± 0.075 | -1.54 ± 0.1
GGUAAGCAAUAUUACGAGCU | -3.03 ± 0.35 | -1.36 ± 0.25
AUCGAGCAAUAUUACGGGCU | -4.05 ± 0.23 | -2.94 ± 0.26
UUCCAGCAAUAUUACGAGAU | -3.68 ± 0.43 | -0.948 ± 0.19
GUCAAGCAAUAUUACGAGUG | -3.56 ± 0.17 | -1.69 ± 0.16
AGUAAGCAAUAUUACGUUCC | -1.85 ± 0.16 | -0.345 ± 0.13
AGGAAGCAAUAUUACGGUGU | -3.33 ± 0.16 | -1.48 ± 0.1
ACGAAGCAAUAUUACGAGAC | -2.39 ± 0.38 | –
CUACAGCAAUAUUACGGCUG | -3.92 ± 0.18 | -2.57 ± 0.22
GCCUAGCAAUAUUACGACGU | -0.19 ± 0.058 | 0.0659 ± 0.07
CUCUAGCAAUAUUACGAAUC | – | -3.69 ± 0.39
UCUAAGCAAUAUUACGCAGA | – | -0.999 ± 0.21

Sequence | self-splicing fitness (ln) (30 °C) | self-splicing fitness (ln) (37 °C)
CAGGAGCAAUAUUACGUGCU | -2.91 ± 0.13 | -2.23 ± 0.14
AUUGAGCAAUAUUACGAUGG | -2.84 ± 0.25 | –
GGGAAGCAAUAUUACGGAGG | -2.91 ± 0.41 | -1.99 ± 0.35
AAUGAGCAAUAUUACGAGGU | -4.31 ± 0.29 | -2.49 ± 0.17
AAAAAGCAAUAUUACGCGAC | -2.77 ± 0.18 | -1.23 ± 0.12
CAUCAGCAAUAUUACGGUAG | -0.362 ± 0.075 | 0.051 ± 0.085
UUAAAGCAAUAUUACGUGUA | -0.993 ± 0.066 | 0.0738 ± 0.08
UUCGAGCAAUAUUACGACGG | -1.24 ± 0.11 | -0.685 ± 0.1
UAACAGCAAUAUUACGUCGA | -1.03 ± 0.12 | 0.186 ± 0.098
CUACAGCAAUAUUACGCGAG | -2.9 ± 0.098 | -1.74 ± 0.1
CUCCAGCAAUAUUACGGUGC | -2.92 ± 0.17 | -2.27 ± 0.24
UCCCAGCAAUAUUACGAUCA | -1.48 ± 0.14 | -0.722 ± 0.14
ACGUAGCAAUAUUACGGUUA | -0.772 ± 0.091 | -0.0368 ± 0.092
CGAAAGCAAUAUUACGCACG | -3.27 ± 0.17 | -2.03 ± 0.15
UUGAAGCAAUAUUACGUAGA | -1.28 ± 0.12 | -0.894 ± 0.15
GCCGAGCAAUAUUACGGGUG | -0.694 ± 0.067 | -0.014 ± 0.075
AUUUAGCAAUAUUACGGCCG | -1.29 ± 0.15 | -1.6 ± 0.15
GGCCAGCAAUAUUACGUUCA | -3.23 ± 0.23 | -0.905 ± 0.19
GCUUAGCAAUAUUACGCCCG | -1.04 ± 0.15 | -0.534 ± 0.2
AGCGAGCAAUAUUACGUCCU | -0.026 ± 0.17 | -0.661 ± 0.18
AUGUAGCAAUAUUACGCCGA | -2.44 ± 0.2 | -0.724 ± 0.16
CUAGAGCAAUAUUACGAUGA | -1.86 ± 0.14 | -1.12 ± 0.22
